The results in this text go back to US20210388107A1 (BYONDIS B V, published 2021).

What is called EC50 is the concentration giving half of the maximal effect. As a reminder, the Kd is the free concentration of one partner at which half of the binding sites on the other are occupied at equilibrium, for simple one-to-one binding.

Assay [1] deals with T1, human SIRPαBIT expressed on cells (human, UniProt P78324 31-504).
T1 construct: endogenous on U937 cells or transiently expressed on ExpiCHO-S cells; in the SHP-1 assay a ProLink-tagged form on Jurkat cells; also called huSIRPαBIT; U937 cells (huSIRPαBIT)
Nature of the assay: flow cytometry, U937 cells. On the procedure:
(§1) After an incubation time of 30 min at 4° C., the cells were washed three times with ice-cold FACS buffer and 50 μl/well secondary mAb (for human antibodies, AffiniPure F(ab′)₂ fragment Goat-anti-human IgG-APC, 1:6,000 dilution, Jackson Immuno Research was added and for mouse antibodies, AffiniPure Fab fragment Goat Anti-Mouse IgG (H+L)-Alexa Fluor 488, 1:1,000 dilution, Jackson Immuno Research was added). After 30 min at 4° C., cells were washed twice and resuspended in 150 μl FACS buffer. Fluorescence intensities were determined by flow cytometry (BD FACSVerse, Franklin Lakes, N.J.) and indicated as the median fluorescence intensity (MFI-Median) for U937 cells and the mean fluorescence intensity (MFI-Mean) for ExpiCHO-S cells. Curves were fitted by nonlinear regression using the sigmoidal dose-response equation with variable slope (four parameters) in GraphPad Prism (version 7.02 for Windows, GraphPad, San Diego, Calif.). EC₅₀ values were calculated as the concentration in μg/ml that gives a response half way between bottom and top of the curve, when using a 4-parameter logistic fit.

Assay [2] addresses T2, cynomolgus monkey SIRPα expressed on ExpiCHO-S cells (cynomolgus monkey, UniProt A0A2K5VYQ9 31-507).
T2 construct: whole, on cells; also called cySIRPα; ExpiCHO-S (cySIRPα)
T2 sequence: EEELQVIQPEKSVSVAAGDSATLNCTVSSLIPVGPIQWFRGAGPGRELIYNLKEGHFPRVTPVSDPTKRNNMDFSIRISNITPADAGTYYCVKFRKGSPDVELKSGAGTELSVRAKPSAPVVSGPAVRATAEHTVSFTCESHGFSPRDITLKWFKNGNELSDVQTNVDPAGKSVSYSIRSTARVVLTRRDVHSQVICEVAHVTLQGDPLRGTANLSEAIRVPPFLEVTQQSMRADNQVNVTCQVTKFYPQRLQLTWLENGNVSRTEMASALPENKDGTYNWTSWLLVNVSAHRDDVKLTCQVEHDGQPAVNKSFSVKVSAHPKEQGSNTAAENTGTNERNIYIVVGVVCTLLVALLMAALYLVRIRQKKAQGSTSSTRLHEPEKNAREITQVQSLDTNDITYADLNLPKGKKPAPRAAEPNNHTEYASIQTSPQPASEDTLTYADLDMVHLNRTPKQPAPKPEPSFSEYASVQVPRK
Kind of assay: flow cytometry, ExpiCHO-S cells. The protocol: as §1

The target of assay [3] is T1, human SIRPαBIT expressed on cells. Kind of assay: flow cytometry, ExpiCHO-S cells. The protocol:
as §1
A general note: Flow cytometry measures light scatter and fluorescence of single cells or particles in a stream.

Assay [4] concerns the target T3, human SIRPα1 expressed on cells (human, UniProt P78324 31-504).
T3 construct: whole, on cells; also called huSIRPα1; ExpiCHO-S (huSIRPα1)
Kind of assay: flow cytometry, ExpiCHO-S cells. The protocol: as §1

Assay [5] has as its target T4, cynomolgus monkey SIRPα, extracellular domain, Avi-FXa-Fc tag (cynomolgus monkey, biotinylated).
T4 construct: also called cySIRPα
Nature of the assay: SPR, captured biotinylated antigen. On the procedure:
(§2) Surface Plasmon Resonance (SPR) assay: Affinity analysis was performed by single cycle kinetics analysis on a Surface Plasmon Resonance apparatus (BiaCore™ T200 system, GE Life Sciences) at 25° C. […] For each step an association time of 150 sec was used, followed by a dissociation time of 600 sec after the highest concentration only, all at a flow rate of 30 μl/min. Regeneration was performed with 6 M guanidine-HCl, 0.25 M NaOH solution (120 sec with flow rate of 30 μl/min). […] Sensorgrams were fitted with a 1:1 Langmuir model for all tested anti-SIRP antibodies. The kinetic parameters (association rate [kₐ], dissociation rate [kd] and binding constant, also referred to as equilibrium dissociation constant or binding affinity [KD]) were calculated using BiaCore™ T200 evaluation software (v3.1).

Assay [6] deals with T5, human SIRPαBIT, extracellular domain 1-370, Avi-FXa-Fc tag (human, biotinylated).
T5 construct: also called huSIRPαBIT; v1
T5 sequence (chain, as listed by the source limits assumed): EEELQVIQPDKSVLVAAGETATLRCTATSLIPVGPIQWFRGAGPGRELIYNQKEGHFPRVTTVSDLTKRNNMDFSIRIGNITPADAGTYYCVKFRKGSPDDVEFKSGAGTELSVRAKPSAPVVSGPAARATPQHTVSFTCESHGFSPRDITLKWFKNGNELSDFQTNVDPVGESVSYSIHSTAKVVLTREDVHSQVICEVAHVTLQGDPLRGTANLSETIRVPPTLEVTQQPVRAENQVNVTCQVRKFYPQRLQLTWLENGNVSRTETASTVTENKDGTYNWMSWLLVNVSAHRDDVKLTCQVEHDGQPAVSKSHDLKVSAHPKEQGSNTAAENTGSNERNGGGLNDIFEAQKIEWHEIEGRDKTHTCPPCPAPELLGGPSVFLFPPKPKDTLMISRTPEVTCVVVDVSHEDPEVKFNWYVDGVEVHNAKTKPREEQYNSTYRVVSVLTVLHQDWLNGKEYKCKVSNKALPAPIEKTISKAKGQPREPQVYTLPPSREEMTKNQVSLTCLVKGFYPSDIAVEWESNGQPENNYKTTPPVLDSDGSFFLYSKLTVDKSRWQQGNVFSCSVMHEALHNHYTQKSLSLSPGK
Kind of assay: SPR, captured biotinylated antigen. On the procedure:
as §2

Assay [7] addresses T6, human SIRPγ, extracellular domain, Avi-FXa-Fc tag (human, biotinylated).
T6 construct: also called huSIRPγ
Kind of assay: SPR, captured biotinylated antigen. On the procedure: as §2
On the technique in general: SPR reads the build-up and loss of mass on a sensor chip optically.

Assay [8] concerns the target T7, human SIRPβ1v2, extracellular domain, Avi-FXa-Fc tag (human, biotinylated).
T7 construct: also called huSIRPβ1v2
Nature of the assay: SPR, captured biotinylated antigen. On the procedure:
as §2

Assay [9] has as its target T8, human SIRPα1 extracellular domain 1-370, Avi-FXa-Fc tag (human, biotinylated).
T8 construct: also called huSIRPα1; v2
Kind of assay: SPR, captured biotinylated antigen. The protocol:
as §2

Assay [10] has as its target T9, human SIRPγ on human CD3+ T-cells (human, UniProt Q9P1W8 29-387).
T9 construct: whole, on cells
Kind of assay: flow cytometry on CD3+ T-cells in PBMC of two healthy individuals, % of positive cells. On the procedure: Flow Cytometry assay: Peripheral mononuclear cells (PBMC) were isolated from fresh blood of healthy individuals using Percoll gradient. […] Cells (200,000 cells/well in a 96-well plate) were subsequently incubated in the presence of tested antibodies or control conditions with secondary antibodies only (secondary goat anti-human IgG Alexa 633 F(ab′)₂ fragment, dilution 1:1000, Jackson Immuno Research, and secondary goat anti-mouse IgG Alexa 633 F(ab′)₂ fragment, dilution 1:250, Invitrogen) for 30 min on ice. After that, cells were washed with FACS buffer and resuspended in a mixture of anti-human CD3 FITC antibody (dilution 1:100, Invitrogen) with respective secondary antibody (either anti-human or anti-mouse) and incubated for 30 min in the dark on ice. Afterwards the cells were washed with FACS buffer and resuspended in 150 μl of FACS buffer and fluorescence intensities were determined by flow cytometry (LSRII HTS or LSRFortessa, BD Biosciences, CA, USA) and indicated as the median fluorescence intensity (MFI-Median) and percentage of positive cells.

In assay [11] the target is T10, human SIRPβ1v1, extracellular domain, Avi-FXa-Fc tag (human, biotinylated).
T10 construct: also called huSIRPβ1v1
T10 sequence (chain, as listed by the source limits assumed): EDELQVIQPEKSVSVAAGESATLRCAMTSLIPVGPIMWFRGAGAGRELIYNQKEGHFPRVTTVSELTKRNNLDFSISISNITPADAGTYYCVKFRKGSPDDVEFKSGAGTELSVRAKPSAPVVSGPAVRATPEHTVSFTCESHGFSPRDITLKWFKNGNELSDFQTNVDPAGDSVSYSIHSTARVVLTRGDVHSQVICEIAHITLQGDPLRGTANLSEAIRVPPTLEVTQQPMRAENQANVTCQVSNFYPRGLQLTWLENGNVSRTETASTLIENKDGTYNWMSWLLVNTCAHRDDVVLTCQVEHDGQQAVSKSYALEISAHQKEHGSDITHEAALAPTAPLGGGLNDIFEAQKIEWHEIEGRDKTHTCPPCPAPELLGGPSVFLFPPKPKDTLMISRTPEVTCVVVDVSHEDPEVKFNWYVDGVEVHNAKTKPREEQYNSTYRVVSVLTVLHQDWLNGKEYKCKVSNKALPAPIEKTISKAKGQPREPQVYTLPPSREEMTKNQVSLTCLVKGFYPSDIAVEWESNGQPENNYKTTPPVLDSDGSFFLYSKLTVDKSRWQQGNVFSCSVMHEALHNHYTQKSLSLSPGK
Nature of the assay: SPR, captured biotinylated antigen. The protocol: as §2

T9 sequence (Q9P1W8 29-387): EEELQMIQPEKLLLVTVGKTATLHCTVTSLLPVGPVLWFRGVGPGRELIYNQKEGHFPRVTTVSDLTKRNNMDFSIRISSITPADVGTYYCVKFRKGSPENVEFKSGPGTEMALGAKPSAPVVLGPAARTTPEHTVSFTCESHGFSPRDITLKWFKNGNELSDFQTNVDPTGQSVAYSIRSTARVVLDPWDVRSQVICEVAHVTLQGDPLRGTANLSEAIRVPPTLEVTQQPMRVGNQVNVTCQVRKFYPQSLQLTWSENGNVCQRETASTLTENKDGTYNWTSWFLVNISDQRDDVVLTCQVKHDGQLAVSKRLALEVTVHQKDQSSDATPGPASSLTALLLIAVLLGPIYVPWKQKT
T7 sequence (chain, as listed by the source limits assumed): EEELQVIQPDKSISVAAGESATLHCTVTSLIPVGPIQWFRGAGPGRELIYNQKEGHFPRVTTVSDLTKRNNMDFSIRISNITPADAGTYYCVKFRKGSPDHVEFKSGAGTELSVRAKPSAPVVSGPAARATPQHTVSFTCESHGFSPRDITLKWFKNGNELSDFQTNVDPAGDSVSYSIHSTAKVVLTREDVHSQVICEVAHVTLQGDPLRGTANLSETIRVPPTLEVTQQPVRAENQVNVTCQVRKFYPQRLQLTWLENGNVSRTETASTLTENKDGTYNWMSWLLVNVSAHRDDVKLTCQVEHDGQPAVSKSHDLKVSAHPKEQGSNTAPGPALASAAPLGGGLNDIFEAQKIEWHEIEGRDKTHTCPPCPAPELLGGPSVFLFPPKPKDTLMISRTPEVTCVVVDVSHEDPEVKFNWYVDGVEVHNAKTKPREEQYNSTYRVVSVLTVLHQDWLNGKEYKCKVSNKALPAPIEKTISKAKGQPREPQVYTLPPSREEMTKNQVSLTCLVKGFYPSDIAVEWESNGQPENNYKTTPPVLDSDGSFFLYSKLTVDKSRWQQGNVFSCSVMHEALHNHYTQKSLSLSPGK
T6 sequence (chain, as listed by the source limits assumed): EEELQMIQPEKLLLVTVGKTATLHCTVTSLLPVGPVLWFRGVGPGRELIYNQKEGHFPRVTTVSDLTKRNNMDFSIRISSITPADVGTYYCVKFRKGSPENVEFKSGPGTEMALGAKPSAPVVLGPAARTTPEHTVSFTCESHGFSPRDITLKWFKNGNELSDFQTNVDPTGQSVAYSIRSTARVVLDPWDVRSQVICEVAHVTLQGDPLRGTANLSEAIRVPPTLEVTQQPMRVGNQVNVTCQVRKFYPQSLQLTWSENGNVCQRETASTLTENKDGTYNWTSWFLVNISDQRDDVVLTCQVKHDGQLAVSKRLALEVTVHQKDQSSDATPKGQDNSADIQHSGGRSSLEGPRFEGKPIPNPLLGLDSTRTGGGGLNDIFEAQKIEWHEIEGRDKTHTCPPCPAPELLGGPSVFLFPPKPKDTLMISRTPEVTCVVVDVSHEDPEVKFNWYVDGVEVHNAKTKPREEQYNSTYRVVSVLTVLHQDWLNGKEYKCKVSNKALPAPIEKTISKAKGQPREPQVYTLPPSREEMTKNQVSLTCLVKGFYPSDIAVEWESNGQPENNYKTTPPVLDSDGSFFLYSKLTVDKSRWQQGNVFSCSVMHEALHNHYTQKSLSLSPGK
T8 sequence (chain, as listed by the source limits assumed): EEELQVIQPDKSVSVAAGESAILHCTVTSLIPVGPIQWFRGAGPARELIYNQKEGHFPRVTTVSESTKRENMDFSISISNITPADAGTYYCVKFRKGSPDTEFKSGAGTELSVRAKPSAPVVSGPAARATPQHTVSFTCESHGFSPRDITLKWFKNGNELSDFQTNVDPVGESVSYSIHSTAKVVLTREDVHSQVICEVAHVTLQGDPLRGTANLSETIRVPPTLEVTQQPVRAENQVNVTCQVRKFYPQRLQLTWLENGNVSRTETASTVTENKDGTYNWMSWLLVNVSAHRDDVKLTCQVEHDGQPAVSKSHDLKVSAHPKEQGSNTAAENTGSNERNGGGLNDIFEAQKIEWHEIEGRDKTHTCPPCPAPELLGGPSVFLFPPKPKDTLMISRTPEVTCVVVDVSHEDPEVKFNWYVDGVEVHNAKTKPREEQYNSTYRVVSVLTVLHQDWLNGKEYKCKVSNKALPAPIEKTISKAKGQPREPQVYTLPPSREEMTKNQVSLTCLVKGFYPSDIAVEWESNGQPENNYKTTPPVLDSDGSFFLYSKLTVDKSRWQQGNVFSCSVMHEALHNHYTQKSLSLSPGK

B1: humanized anti-SIRPα antibody 1 (antibody, human IgG1, kappa, L234A L235A)
heavy: not shown
light: DIQMTQSPSSLSASVGDRVTITCRASQSINSYLAWYQQKPGKAPKLLIYSASFLYSGVPSRFSGSGSGTDFTLTISSLQPEDFATYYCQSWHYISRSYTFGQGTKVEIKRTVAAPSVFIFPPSDEQLKSGTASVVCLLNNFYPREAKVQWKVDNALQSGNSQESVTEQDSKDSTYSLSSTLTLSKADYEKHKVYACEVTHQGLSSPVTKSFNRGEC
notes: human IgG1 LALA, kappa; also called mAb 1
In the case of B1, the EC50 in assay [1] stood at 0.09 µg/mL; in [2], 0.12 µg/mL; in assay [3], 0.3 µg/mL; in assay [4] it was 0.28 µg/mL. In addition, the Kd is 1.87 nM in assay [5], less than 0.01 nM in [6], 2.42 nM in assay [8] and 1.49 nM in assay [9]. The binding result in assay [7] was “no binding (tested: below 10 RU cut-off; up to 1600 ng/ml)”; in [10], “no binding”.

B2: humanized anti-SIRPα antibody 3 (antibody, human IgG1, kappa, L234A L235A)
heavy: not shown
light: DIQMTQSPSSLSASVGDRVTITCRASQSINSYLAWYQQKPGKAPKLLIYSASFLYSGVPSRFSGSGSGTDFTLTISSLQPEDFATYYCQSWHYISRSYTFGQGTKVEIKRTVAAPSVFIFPPSDEQLKSGTASVVCLLNNFYPREAKVQWKVDNALQSGNSQESVTEQDSKDSTYSLSSTLTLSKADYEKHKVYACEVTHQGLSSPVTKSFNRGEC
notes: human IgG1 LALA, kappa; also called mAb 3
With B2, the EC50 in assay [1] came out at 0.12 µg/mL; in [2], 0.15 µg/mL; in assay [3], 0.28 µg/mL; in assay [4], 0.4 µg/mL. Moreover, the Kd in assay [5] is 1.66 nM; in assay [6] it was less than 0.01 nM; in assay [8], 1.92 nM; in [9], 0.908 nM. For the same molecule, the values for the binding result in assay [7] and in assay [10] were “no binding (tested: below 10 RU cut-off; up to 1600 ng/ml)” and “no binding”, respectively.

B3: humanized anti-SIRPα antibody 2 (antibody, human IgG1, kappa, L234A L235A)
heavy: not shown
light: DIQMTQSPSSLSASVGDRVTITCRASQSINSYLAWYQQKPGKAPKLLIYSASFLYSGVPSRFSGSGSGTDFTLTISSLQPEDFATYYCQSWHYISRSYTFGQGTKVEIKRTVAAPSVFIFPPSDEQLKSGTASVVCLLNNFYPREAKVQWKVDNALQSGNSQESVTEQDSKDSTYSLSSTLTLSKADYEKHKVYACEVTHQGLSSPVTKSFNRGEC
notes: human IgG1 LALA, kappa; also called mAb 2
Consider B3, for which the EC50 was found to be 0.1 µg/mL in assay [1], 0.12 µg/mL in assay [2], 0.31 µg/mL in assay [3] and 0.32 µg/mL in assay [4]. Besides, the Kd in assay [5] was 2.27 nM; in assay [6], less than 0.01 nM; in assay [8], 2.54 nM; in assay [9] it was 1.34 nM. Further, the results for the binding result in assay [7] and in [10] were “no binding (tested: below 10 RU cut-off; up to 1600 ng/ml)” and “no binding”, respectively.

B4: humanized anti-SIRPα antibody 7 (antibody, human IgG1, kappa, L234A L235A, V domains shown)
VH: RQLVESGGGLVQPGGSLRLSCAASGFSLSSHGISWVRQAPGKGLEWVGTIGTGVITYYASWAKGRFTGSKTSSTAYLQMTSLRAEDTAVYYCARGSAWNDPFDYWGQGTLVTVSS
VL: DIVMTQSPSSLSASVGDRVTITCQASQSVYGNNDLAWYQQKPGQAPKLLIYLASTLATGVPSRFSGSGSGTDFTLTISSLQPEDFATYYCLGGGDDEADNTFGQGTKVEIKR
notes: human IgG1 LALA, kappa; also called mAb 7
For B4, the EC50 in assay [1] turned out to be 3.55 µg/mL; in assay [3] it was 0.2 µg/mL; in [4], 0.2 µg/mL. The Kd in [6] was found to be 0.378 nM; in assay [11] it was 1.65 nM; in assay [9] it was 0.0171 nM. For the same molecule, the binding result in assay [7] is reported as “no binding (tested: below 10 RU cut-off; up to 1600 ng/ml)”; in [10], “no binding”.
